Numbering of substitutions follows the chain as printed. Names and notes keep the numbering of the source.
T1: human FcγRIIb constitutively expressed on MDCK cells (human, UniProt P31994 43-310)
T1 sequence (looked up): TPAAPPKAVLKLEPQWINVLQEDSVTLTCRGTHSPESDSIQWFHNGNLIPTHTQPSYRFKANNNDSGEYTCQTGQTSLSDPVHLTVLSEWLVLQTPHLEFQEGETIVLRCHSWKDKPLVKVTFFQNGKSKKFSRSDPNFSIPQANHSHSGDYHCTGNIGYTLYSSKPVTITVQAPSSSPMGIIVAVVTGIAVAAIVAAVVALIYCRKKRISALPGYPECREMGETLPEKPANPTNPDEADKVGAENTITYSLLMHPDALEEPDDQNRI

T2: human FcγRIIaH extracellular domain, C-terminal His-tag (human, UniProt P12318 34-217)
T2 construct: also called human FcγRIIa (type H); FcgRIIaH
T2 sequence: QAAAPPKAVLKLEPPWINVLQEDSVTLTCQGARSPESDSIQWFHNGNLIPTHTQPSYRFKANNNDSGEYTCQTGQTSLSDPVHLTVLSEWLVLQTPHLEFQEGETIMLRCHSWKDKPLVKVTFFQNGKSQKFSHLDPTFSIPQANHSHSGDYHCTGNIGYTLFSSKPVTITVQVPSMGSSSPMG

T3: soluble mouse FcγRII, His-tagged (mouse, UniProt P08101 30-210, limits assumed)
T3 construct: Captured on the chip by an anti-His antibody
T3 sequence (looked up): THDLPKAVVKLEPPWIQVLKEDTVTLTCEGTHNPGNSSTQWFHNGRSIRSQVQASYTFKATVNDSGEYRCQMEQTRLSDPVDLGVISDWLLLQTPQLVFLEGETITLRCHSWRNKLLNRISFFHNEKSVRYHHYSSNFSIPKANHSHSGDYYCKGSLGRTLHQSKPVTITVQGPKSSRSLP

B1: M103205H795-P1535m/M103202L889-SK1 (antibody, human IgG1, kappa)
heavy: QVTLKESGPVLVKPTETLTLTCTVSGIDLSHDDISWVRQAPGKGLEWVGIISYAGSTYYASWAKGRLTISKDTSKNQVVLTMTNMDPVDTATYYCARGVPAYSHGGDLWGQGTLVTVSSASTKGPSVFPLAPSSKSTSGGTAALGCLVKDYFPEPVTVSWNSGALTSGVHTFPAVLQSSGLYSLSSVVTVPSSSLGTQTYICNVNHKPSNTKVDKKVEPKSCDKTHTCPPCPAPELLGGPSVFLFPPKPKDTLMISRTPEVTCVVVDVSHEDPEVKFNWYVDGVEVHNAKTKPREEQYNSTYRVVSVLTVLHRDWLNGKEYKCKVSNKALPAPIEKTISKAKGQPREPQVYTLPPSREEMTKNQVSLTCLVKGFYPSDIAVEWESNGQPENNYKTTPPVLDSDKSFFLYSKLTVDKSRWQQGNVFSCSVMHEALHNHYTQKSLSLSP
light: DIVMTQSPATLSLSPGERATLSCTSSQSVYHANWLSWFQQKPGQPPKLLIYWASTLAYGVPSRFSGSGSGTDFTLTISSLQPEDAATYYCAGGYGGGRYAFGQGTKVEIKRTVAAPSVFIFPPSDEQLKSGTASVVCLLNNFYPREAKVQWKVDNALQSGNSQESVTEQDSKDSTYSLSSTLTLSKADYEKHKVYACEVTHQGLSSPVTKSFNRGEC
B2: M103205H795-P1545m/M103202L889-SK1 (antibody, human IgG1, kappa)
heavy: QVTLKESGPVLVKPTETLTLTCTVSGIDLSHDDISWVRQAPGKGLEWVGIISYAGSTYYASWAKGRLTISKDTSKNQVVLTMTNMDPVDTATYYCARGVPAYSHGGDLWGQGTLVTVSSASTKGPSVFPLAPSSKSTSGGTAALGCLVKDYFPEPVTVSWNSGALTSGVHTFPAVLQSSGLYSLSSVVTVPSSSLGTQTYICNVNHKPSNTKVDKKVEPKSCDKTHTCPPCPAPELLGGPSVFLFPPKPKDTLMISRTPEVTCVVVDVSHEDPEVKFNWYVDGVEVHNAKTKPREEQYNSTYRVVSVLTVLHRDWLNGKEYKCKVSNKALPAPIEKTISKAKGQPREPQVYTLPPSREEMTKNQVSLTCLVKGFYPSDIAVEWESNGQPENNYKTTPPVLDSKGSFFLYSKLTVKKSRWQQGNVFSCSVMHEALHNHYTQKSLSLSP
light: B1 light
B3: M103205H795-P1541m/M103202L889-SK1 (antibody, human IgG1, kappa)
heavy: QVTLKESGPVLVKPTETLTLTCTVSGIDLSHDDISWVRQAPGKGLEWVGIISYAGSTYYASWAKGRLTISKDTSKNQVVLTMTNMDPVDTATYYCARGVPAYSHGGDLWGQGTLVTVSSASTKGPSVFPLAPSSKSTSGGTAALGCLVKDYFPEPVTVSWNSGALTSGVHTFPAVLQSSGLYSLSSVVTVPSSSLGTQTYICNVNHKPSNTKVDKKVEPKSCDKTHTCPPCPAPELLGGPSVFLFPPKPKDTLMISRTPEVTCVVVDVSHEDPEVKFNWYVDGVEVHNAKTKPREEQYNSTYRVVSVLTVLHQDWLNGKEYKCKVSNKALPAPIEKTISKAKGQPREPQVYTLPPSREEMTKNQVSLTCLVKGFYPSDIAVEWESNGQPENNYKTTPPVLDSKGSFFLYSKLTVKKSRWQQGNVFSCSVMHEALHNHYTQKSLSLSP
light: B1 light
B4: M103205H795-P1553m/M103202L889-SK1 (antibody, human IgG1, kappa)
heavy: B2 heavy with R313Q, G387R, K403D, G404R
light: B1 light
B5: M103205H795-P1539m/M103202L889-SK1 (antibody, human IgG1, kappa)
heavy: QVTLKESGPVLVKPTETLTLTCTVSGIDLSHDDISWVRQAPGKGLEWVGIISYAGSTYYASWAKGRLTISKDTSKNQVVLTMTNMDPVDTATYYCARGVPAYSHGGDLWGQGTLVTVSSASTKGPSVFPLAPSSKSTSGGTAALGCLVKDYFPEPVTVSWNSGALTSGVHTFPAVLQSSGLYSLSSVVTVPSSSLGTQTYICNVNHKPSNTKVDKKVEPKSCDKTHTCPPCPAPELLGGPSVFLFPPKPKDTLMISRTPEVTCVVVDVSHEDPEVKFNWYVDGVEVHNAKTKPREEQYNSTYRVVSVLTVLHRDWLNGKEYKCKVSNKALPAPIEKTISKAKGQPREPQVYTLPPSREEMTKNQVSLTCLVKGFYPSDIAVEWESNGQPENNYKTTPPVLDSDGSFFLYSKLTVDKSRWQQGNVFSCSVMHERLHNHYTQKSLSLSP
light: B1 light
B6: M103205H795-P1540m/M103202L889-SK1 (antibody, human IgG1, kappa)
heavy: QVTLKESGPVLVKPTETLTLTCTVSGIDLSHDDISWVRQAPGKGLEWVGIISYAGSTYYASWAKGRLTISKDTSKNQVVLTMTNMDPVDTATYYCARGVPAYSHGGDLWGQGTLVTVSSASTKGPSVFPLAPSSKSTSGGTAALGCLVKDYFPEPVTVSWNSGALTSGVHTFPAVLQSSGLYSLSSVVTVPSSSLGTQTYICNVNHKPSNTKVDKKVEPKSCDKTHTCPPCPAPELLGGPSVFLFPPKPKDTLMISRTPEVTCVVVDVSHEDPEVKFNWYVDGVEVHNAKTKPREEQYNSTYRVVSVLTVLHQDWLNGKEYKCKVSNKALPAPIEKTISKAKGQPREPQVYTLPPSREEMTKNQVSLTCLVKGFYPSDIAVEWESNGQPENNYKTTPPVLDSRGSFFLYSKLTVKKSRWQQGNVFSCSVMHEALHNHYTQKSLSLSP
light: B1 light
B7: M103205H795-P1543m/M103202L889-SK1 (antibody, human IgG1, kappa)
heavy: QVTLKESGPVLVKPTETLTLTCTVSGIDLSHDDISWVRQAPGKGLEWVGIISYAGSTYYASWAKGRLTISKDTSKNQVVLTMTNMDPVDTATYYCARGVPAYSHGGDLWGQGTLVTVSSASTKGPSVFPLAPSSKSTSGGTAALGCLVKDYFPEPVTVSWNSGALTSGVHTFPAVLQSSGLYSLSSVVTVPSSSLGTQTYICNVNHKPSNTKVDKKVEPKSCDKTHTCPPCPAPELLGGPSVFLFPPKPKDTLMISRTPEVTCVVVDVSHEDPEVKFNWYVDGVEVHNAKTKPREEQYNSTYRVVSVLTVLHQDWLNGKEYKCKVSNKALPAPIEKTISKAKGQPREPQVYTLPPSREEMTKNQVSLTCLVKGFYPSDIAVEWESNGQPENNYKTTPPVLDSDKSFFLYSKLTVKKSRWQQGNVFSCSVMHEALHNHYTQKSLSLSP
light: B1 light
B8: M103205H795-P1546m/M103202L889-SK1 (antibody, human IgG1, kappa)
heavy: B2 heavy with K403D, G404R
light: B1 light
B9: M103205H795-P1548m/M103202L889-SK1 (antibody, human IgG1, kappa)
heavy: B2 heavy with G387R, K403R, K415D
light: B1 light
B10: M103205H795-P1538m/M103202L889-SK1 (antibody, human IgG1, kappa)
heavy: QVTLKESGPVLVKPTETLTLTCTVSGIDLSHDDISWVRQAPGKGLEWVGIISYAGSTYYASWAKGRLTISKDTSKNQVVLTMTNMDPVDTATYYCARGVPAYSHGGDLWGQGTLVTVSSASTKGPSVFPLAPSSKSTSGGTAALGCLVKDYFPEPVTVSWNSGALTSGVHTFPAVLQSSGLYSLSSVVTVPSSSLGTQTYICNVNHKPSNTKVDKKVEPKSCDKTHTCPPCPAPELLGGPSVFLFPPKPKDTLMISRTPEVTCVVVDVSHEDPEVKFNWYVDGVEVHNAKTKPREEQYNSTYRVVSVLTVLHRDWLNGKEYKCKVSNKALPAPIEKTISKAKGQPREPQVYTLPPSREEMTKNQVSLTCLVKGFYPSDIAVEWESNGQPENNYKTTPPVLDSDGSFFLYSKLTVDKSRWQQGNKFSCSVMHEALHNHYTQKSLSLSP
light: B1 light
B11: M103205H795-P1544m/M103202L889-SK1 (antibody, human IgG1, kappa)
heavy: B2 heavy with K403R
light: B1 light
B12: M103205H795-P1552m/M103202L889-SK1 (antibody, human IgG1, kappa)
heavy: B2 heavy with R313Q, G387R, K403R
light: B1 light
B13: M103205H795-SG141/M103202L889-SK1 (antibody, human IgG1, kappa)
heavy: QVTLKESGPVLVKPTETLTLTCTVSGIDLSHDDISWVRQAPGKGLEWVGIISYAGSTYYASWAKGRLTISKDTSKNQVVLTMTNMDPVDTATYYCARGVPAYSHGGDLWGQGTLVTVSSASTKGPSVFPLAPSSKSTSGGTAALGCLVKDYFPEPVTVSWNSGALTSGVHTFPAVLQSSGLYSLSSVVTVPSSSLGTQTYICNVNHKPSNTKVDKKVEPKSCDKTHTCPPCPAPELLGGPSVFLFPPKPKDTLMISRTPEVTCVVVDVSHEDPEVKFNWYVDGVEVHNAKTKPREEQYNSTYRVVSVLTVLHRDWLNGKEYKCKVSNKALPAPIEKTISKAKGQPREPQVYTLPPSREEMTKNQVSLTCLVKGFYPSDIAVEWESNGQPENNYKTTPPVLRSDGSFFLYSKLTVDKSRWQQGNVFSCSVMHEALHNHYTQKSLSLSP
light: B1 light
B14: M103205H795-P1542m/M103202L889-SK1 (antibody, human IgG1, kappa)
heavy: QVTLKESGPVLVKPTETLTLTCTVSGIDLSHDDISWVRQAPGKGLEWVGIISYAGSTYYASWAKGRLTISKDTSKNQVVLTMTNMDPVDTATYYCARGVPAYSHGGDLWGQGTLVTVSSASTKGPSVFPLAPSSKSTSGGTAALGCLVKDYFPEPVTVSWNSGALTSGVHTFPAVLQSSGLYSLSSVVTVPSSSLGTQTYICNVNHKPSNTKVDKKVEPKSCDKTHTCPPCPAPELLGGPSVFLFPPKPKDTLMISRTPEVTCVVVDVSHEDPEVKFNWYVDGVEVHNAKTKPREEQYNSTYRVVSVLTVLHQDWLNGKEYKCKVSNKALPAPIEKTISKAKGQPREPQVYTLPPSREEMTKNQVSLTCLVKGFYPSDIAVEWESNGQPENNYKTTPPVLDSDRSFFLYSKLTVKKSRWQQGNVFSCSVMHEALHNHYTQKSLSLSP
light: B1 light
B15: M103205H795-P1549m/M103202L889-SK1 (antibody, human IgG1, kappa)
heavy: B2 heavy with G387R, K403D, G404R, K415D
light: B1 light
B16: M103205H795-P1537m/M103202L889-SK1 (antibody, human IgG1, kappa)
heavy: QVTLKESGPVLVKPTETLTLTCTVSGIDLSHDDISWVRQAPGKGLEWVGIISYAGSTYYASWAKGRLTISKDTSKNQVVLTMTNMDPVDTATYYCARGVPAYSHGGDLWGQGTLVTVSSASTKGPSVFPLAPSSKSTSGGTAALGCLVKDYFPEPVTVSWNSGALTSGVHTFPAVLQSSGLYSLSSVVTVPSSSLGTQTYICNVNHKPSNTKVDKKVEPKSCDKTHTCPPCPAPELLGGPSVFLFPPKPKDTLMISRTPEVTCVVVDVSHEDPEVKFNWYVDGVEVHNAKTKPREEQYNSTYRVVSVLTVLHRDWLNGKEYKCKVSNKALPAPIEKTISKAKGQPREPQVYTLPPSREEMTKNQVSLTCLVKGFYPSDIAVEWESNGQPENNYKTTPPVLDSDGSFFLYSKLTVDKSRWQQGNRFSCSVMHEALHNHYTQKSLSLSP
light: B1 light
B17: M103205H795-P1550m/M103202L889-SK1 (antibody, human IgG1, kappa)
heavy: B2 heavy with E390R, K403R, K415D
light: B1 light
B18: M103205H795-P1551m/M103202L889-SK1 (antibody, human IgG1, kappa)
heavy: B2 heavy with E390R, K403D, G404R, K415D
light: B1 light
B19: M103205H795-P1547m/M103202L889-SK1 (antibody, human IgG1, kappa)
heavy: B2 heavy with K403D, G404K
light: B1 light
B20: M103205H795-P1536m/M103202L889-SK1 (antibody, human IgG1, kappa)
heavy: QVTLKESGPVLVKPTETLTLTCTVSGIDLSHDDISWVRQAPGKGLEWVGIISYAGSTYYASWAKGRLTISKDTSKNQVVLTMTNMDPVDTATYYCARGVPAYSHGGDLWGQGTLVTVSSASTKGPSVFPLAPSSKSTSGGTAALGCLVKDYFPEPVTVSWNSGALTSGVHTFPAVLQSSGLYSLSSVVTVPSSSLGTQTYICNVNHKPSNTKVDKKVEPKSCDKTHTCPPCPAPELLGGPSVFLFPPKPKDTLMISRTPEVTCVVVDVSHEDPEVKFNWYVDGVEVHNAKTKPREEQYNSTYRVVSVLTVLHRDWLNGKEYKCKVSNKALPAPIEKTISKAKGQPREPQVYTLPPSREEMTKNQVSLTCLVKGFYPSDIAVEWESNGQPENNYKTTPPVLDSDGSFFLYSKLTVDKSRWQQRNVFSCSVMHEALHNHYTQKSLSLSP
light: B1 light
B21: M103205H795-P1555m/M103202L889-SK1 (antibody, human IgG1, kappa)
heavy: B2 heavy with R313Q, E390R, K403D, G404R
light: B1 light
B22: GpH7-B3 variant G237Y/GpL16-k0 (antibody, human IgG1, kappa)
heavy: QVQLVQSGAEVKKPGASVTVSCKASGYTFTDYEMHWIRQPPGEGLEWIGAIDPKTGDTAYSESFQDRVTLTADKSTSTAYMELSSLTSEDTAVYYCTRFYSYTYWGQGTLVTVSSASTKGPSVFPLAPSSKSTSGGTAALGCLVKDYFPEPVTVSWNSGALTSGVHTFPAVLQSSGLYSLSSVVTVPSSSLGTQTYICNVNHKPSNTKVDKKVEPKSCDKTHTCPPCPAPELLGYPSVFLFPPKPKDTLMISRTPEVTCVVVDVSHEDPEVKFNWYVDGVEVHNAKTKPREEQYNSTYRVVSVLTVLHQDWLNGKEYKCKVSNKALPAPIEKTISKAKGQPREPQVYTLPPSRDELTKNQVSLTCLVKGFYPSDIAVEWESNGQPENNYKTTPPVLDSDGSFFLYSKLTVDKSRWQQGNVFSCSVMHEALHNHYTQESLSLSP
light: DIVMTQSPLSLPVTPGEPASISCQASESLVHSNRNTYLHWYLQKPGQSPQLLIYKVSNRFSGVPDRFSGSGSGTDFTLKISRVEAEDVGVYYCSQNTHVPPTFGQGTKVEIERTVAAPSVFIFPPSDEQLKSGTASVVCLLNNFYPREAKVQWKVDNALQSGNSQESVTEQDSKDSTYSLSSTLTLSKADYEKHKVYACEVTHQGLSSPVTKSFNRGEC
B23: GpH7-B3 variant P238M/GpL16-k0 (antibody, human IgG1, kappa)
heavy: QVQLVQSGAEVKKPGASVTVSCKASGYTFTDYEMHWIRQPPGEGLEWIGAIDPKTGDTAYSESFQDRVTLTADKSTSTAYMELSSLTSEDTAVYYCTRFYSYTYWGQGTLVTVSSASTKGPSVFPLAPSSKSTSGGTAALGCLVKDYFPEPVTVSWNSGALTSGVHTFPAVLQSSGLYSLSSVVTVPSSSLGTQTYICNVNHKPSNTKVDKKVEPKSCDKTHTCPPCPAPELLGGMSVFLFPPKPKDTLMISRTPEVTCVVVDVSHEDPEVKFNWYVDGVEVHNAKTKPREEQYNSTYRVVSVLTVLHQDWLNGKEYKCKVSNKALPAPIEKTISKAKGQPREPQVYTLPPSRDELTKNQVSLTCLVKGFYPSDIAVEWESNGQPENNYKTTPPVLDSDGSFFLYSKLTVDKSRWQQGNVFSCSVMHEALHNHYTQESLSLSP
light: B22 light
B24: GpH7-B3 variant N325I/GpL16-k0 (antibody, human IgG1, kappa)
heavy: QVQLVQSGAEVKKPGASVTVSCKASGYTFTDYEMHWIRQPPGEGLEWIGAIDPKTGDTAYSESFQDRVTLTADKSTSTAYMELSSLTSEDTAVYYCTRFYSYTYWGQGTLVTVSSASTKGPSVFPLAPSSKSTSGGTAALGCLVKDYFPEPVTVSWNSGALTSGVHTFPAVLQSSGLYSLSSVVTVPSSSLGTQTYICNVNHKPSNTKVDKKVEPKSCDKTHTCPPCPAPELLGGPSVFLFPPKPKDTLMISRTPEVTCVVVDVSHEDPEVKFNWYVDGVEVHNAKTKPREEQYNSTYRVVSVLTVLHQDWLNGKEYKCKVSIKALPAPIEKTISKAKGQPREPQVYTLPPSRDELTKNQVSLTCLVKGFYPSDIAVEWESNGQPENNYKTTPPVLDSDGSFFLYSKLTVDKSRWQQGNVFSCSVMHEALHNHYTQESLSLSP
light: B22 light

Biological target: T1, human FcγRIIb constitutively expressed …
Assay: cell-based or functional assay

Binder | celluar uptake
B1 | 2.49 relative to SG1 (=1.00)
B2 | 7.73 relative to SG1 (=1.00)
B3 | 7.17 relative to SG1 (=1.00)
B4 | 2.86 relative to SG1 (=1.00)
B5 | 3.2 relative to SG1 (=1.00)
B6 | 7.64 relative to SG1 (=1.00)
B7 | 3.7 relative to SG1 (=1.00)
B8 | 5.1 relative to SG1 (=1.00)
B9 | 2.3 relative to SG1 (=1.00)
B10 | 1.84 relative to SG1 (=1.00)
B11 | 7.66 relative to SG1 (=1.00)
B12 | 4.44 relative to SG1 (=1.00)
B13 | 4.42 relative to SG1 (=1.00)
B14 | 3.32 relative to SG1 (=1.00)
B15 | 2.03 relative to SG1 (=1.00)
B16 | 2.77 relative to SG1 (=1.00)
B17 | 6.43 relative to SG1 (=1.00)
B18 | 2.91 relative to SG1 (=1.00)
B19 | 4.85 relative to SG1 (=1.00)
B20 | 2.05 relative to SG1 (=1.00)
B21 | 3.71 relative to SG1 (=1.00)

Biological target: T2, human FcγRIIaH extracellular domain, …
Assay: SPR 25C; FcgR bound per captured antibody, relative to parent B3
Procedure: These Fc variants are referred to as B3 variants. B3 variants were expressed and the binding of protein-A purified antibodies to each FcγR (FcγRIIa type H. FcγRIIa type R, FcγRIIb, and FcγRIIIaF) was comprehensively evaluated as follows. Analysis of interaction between each altered antibody and the Fcγ receptor prepared as mentioned above was carried out using BIACORE® T100 (GE Healthcare), BIACORE® T200 (GE Healthcare), BIACORE® A100, or BIACORE® 4000. HBS-EP+(GE Healthcare) was used as the running buffer, and the measurement temperature was set to 25° C. Chips produced by immobilizing Protein A (Thermo Scientific), Protein A/G (Thermo Scientific), or Protein L (ACTIGEN or BioVision) by the amine coupling method to a Series S sensor Chip CM5 or CM4 (GE Healthcare) were used. After capturing of antibodies of interest onto these sensor chips, an Fcγ receptor diluted with the running buffer was allowed to interact, the amount bound to an antibody was measured. However, since the amount of Fcγ receptor bound depends on the amount of the captured antibodies, the amount of Fcγ receptor bound was divided by the amount of each antibody captured to obtain corrected values, and these values were compared. Furthermore, antibodies captured onto the chips were washed by 10 mM glycine-HCl pH1.5, and the chips were regenerated and used repeatedly. […] The value obtained by multiplying this value by 100 was used as an indicator of the relative FcγR-binding activity of each variant.

Binder | Binding to human FcgRs (parent B3 = 100)
B22 | 77 parent B3 = 100
B23 | 86 parent B3 = 100
B24 | 76 parent B3 = 100

Biological target: T3, soluble mouse FcγRII, His-tagged
Assay: SPR, mouse FcgRII-His captured, antigen-antibody complex injected, pH7.4, 25C
Procedure: Regarding the produced Fc region variant-containing antibodies, binding assays between soluble mouse FcγRII and antigen-antibody complexes were performed using BIACORE® T200 (GE Healthcare). Soluble mouse FcγRII was produced in the form of a His-tagged molecule by a method known to those skilled in the art. An appropriate amount of an anti-His antibody was fixed onto Sensor chip CM5 (GE Healthcare) by the amine coupling method using a His capture kit (GE Healthcare) to capture mouse FcγRII. Next, an antibody-antigen complex and a running buffer (as a reference solution) were injected, and interaction was allowed to take place with the mouse FcγRII captured onto the sensor chip. 20 mM N-(2-Acetamido)-2-aminoethanesulfonic acid, 150 mM NaCl, 1.2 mM CaCl₂, and 0.05% (w/v) TWEEN, 20 at pH7.4 was used as the running buffer, and the respective buffer was also used to dilute the soluble mouse FcγRII. To regenerate the sensor chip, 10 mM glycine-HCl at pH1.5 was used. All measurements were carried out at 25° C. […] To calculate the parameters, the BIACORE® T100 Evaluation Software (GE Healthcare) was used.

Binder | biacore IC binding
B1 | 1.11 relative to SG1 (=1.00)
B2 | 1.8 relative to SG1 (=1.00)
B3 | 1.57 relative to SG1 (=1.00)
B4 | 1.47 relative to SG1 (=1.00)
B5 | 0.9 relative to SG1 (=1.00)
B6 | 1.73 relative to SG1 (=1.00)
B7 | 1.19 relative to SG1 (=1.00)
B8 | 1.41 relative to SG1 (=1.00)
B9 | 1.37 relative to SG1 (=1.00)
B10 | 1.11 relative to SG1 (=1.00)
B11 | 2.04 relative to SG1 (=1.00)
B12 | 2.19 relative to SG1 (=1.00)
B13 | 1.64 relative to SG1 (=1.00)
B14 | 1.21 relative to SG1 (=1.00)
B15 | 1.22 relative to SG1 (=1.00)
B16 | 1.32 relative to SG1 (=1.00)
B17 | 1.63 relative to SG1 (=1.00)
B18 | 1.33 relative to SG1 (=1.00)
B19 | 1.33 relative to SG1 (=1.00)
B20 | 1.16 relative to SG1 (=1.00)
B21 | 2.01 relative to SG1 (=1.00)

Source: patent US20200317768A1 (published 2020)
